Experimental data published in paper PMC2198822 (The Journal of Cell Biology, 2001).

T1: formiminotransferase cyclodeaminase (FTCD), bacterially expressed and purified (rat, UniProt O88618 1-541)
T1 sequence (looked up): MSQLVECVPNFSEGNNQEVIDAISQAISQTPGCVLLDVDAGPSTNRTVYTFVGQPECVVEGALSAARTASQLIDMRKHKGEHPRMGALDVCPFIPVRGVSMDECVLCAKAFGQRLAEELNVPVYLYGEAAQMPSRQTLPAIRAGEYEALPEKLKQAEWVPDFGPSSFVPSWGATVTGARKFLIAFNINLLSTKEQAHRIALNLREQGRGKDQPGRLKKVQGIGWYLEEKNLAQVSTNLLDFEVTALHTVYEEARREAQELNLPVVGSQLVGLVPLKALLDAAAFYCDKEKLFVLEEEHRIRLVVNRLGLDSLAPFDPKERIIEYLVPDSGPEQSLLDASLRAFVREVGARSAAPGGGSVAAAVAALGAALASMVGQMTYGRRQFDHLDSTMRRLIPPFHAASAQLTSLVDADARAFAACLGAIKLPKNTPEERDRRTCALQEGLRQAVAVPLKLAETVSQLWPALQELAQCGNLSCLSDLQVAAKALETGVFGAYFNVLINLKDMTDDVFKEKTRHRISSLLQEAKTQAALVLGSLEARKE

B1: recombinant mouse vimentin, bacterially expressed and purified (natural protein)
chain: not shown
B2: 35S-radiolabeled FTCD generated in vitro by coupled transcription/translation (enzyme, UniProt O88618 1-541, looked up)
chain: T1 sequence (looked up)
modifications: [35S]methionine and [35S]cysteine label

How the values were obtained:
[1] = target: T1, formiminotransferase cyclodeaminase …; assay: co-sedimentation
[2] = target: B1; assay: far-Western, overlay or dot blot
[3] = target: T1, formiminotransferase cyclodeaminase …; assay: far-Western, overlay or dot blot

Row | Binder | binding result [1] | fold bound relative to BSA [2] [fold] | fold bound relative to BSA [3] [fold]
1 | B1 | binds | – | –
2 | B2 | – | ~10 | ~6
